Our source for the IC50 and Kd values is the Immune Epitope Database (IEDB).

In assay [1] the target is HLA-A*11:01. Nature of the assay: IEDB peptide-MHC binding, purified MHC/competitive/fluorescence; ≥ and ≤ were set here for values at or beyond the usual limits of such assays.
For a further assay, the target named is HLA-A*02:03. Nature of the assay: IEDB peptide-MHC binding, purified MHC/direct/fluorescence; filed as Kd, often an IC50 or EC50 that approximates it; ≥ and ≤ were set here for values at or beyond the usual limits of such assays. As to conditions: source organism: Mycobacterium tuberculosis str. Haarlem.
Assay [2] has as its target HLA-B*58:01. Put plainly: IEDB peptide-MHC binding, purified MHC/competitive/radioactivity; filed as Kd, often an IC50 or EC50 that approximates it; ≥ and ≤ were set here for values at or beyond the usual limits of such assays.
A further assay has as its target HLA-A*24:02. Nature of the assay: IEDB peptide-MHC binding, purified MHC/competitive/fluorescence; ≥ and ≤ were set here for values at or beyond the usual limits of such assays.
Another assay has as its target HLA-B*08:01. The assay is described as above.
Assay [3] has as its target HLA-A*02:01. The assay is described as above.
The target in another assay is HLA-B*07:02. Nature of the assay: IEDB peptide-MHC binding, purified MHC/direct/fluorescence; filed as Kd, often an IC50 or EC50 that approximates it; ≥ and ≤ were set here for values at or beyond the usual limits of such assays.
The next assay concerns the target HLA-B*48:01. The assay is described as above.
The target in the next assay is HLA-A*01:01. The description is as above.
In the next assay the target is HLA-B*44:02. The assay is described as above.
Assay [4] deals with HLA-B*15:01. Described as above.
Assay [5] deals with HLA-A*11:01. Described as above.
Another assay deals with HLA-A*69:01. The assay is described as above.
The next assay concerns the target HLA-B*39:01. Described as above.
The next assay concerns the target HLA-B*57:01. The assay is described as above.
In the next assay the target is HLA-A*03:01. The description is as above.
Another assay deals with HLA-B*18:01. Described as above.
Assay [6] has as its target HLA-B*58:01. Described as above.
A further assay addresses HLA-A*31:01. Described as above.
For assay [7], the target named is HLA-A*02:01. The assay is described as above.
In the next assay the target is HLA-B*27:05. The assay is described as above.
A further assay concerns the target HLA-A*29:02. The assay is described as above.
The next assay concerns the target HLA-B*46:01. The description is as above.
The target in assay [8] is HLA-B*15:01. Put plainly: IEDB peptide-MHC binding, purified MHC/competitive/fluorescence; filed as Kd, often an IC50 or EC50 that approximates it; ≥ and ≤ were set here for values at or beyond the usual limits of such assays.
In assay [9] the target is HLA-A*02:01. The description is as above. The following applies: source organism: Shigella boydii CDC 3083-94.
The target of a further assay is HLA-B*53:01. Put plainly: IEDB peptide-MHC binding, purified MHC/competitive/radioactivity; filed as Kd, often an IC50 or EC50 that approximates it; ≥ and ≤ were set here for values at or beyond the usual limits of such assays.
The target of another assay is HLA-B*51:01. Nature of the assay: IEDB peptide-MHC binding, purified MHC/direct/fluorescence; filed as Kd, often an IC50 or EC50 that approximates it; ≥ and ≤ were set here for values at or beyond the usual limits of such assays. The following applies: source organism: Mycobacterium tuberculosis.
Another assay addresses HLA-B*40:01. The description is as above.
The next assay concerns the target HLA-B*15:17. The description is as above.
In the next assay the target is HLA-A*26:01. The assay is described as above. As to conditions: source organism: Salmonella enterica subsp. enterica serovar Typhimurium.
Setting [10] is: source organism: Vaccinia virus.
[11] abbreviates: source organism: Zaire ebolavirus.
[12] abbreviates: source organism: Mycobacterium avium 104.
Where [13] appears, read: source organism: Dengue virus 1 Brazil/97-11/1997.
[14] abbreviates: source organism: Vaccinia virus WR.
The mark [15] stands for this setting: source organism: Mycobacterium tuberculosis.
[16] abbreviates: source organism: West Nile virus.
The mark [17] stands for this setting: source organism: Lake Victoria marburgvirus - Popp.
[18] abbreviates: source organism: Salmonella enterica subsp. enterica serovar Typhimurium.
[19] abbreviates: source organism: Vibrio cholerae.
The mark [20] stands for this setting: source organism: Yellow fever virus.
[21] abbreviates: source organism: Dengue virus 4 Philippines/H241/1956.

What is called IC50 is the concentration at which inhibition is half-maximal. A higher IC50 goes with lower potency. The sequence AADEPPLVR had an IC50 with HLA-A*11:01 [1] (setting [10]) of no less than 142 µM.
In general, Kd refers to the equilibrium constant for the complex coming apart. For the sequence AMWDWSKSV, in the assay with HLA-A*02:03, the dissociation constant Kd was no more than 0.001 µM.
Regarding ASAIVLEFF, the Kd in the assay with HLA-B*58:01 [2] (source organism: Dengue virus 3 Martinique/1243/1999) worked out at 0.0282 µM.
Regarding DMDYHKILT, the figures for the IC50 in the assay with HLA-A*24:02 (setting [11]), with HLA-B*08:01 (setting [11]) and with HLA-A*02:01 [3] (setting [11]) were 4.04 µM, no less than 199 µM and no less than 277 µM, respectively.
Turning to EHVQGDIDL, the Kd in the assay with HLA-B*07:02 (setting [12]), with HLA-B*48:01 (setting [12]), with HLA-A*01:01 (setting [12]), with HLA-B*44:02 (setting [12]), with HLA-B*15:01 [4] (setting [12]) and with HLA-A*11:01 [5] (setting [12]) was no less than 20 µM each time. Further, the equilibrium dissociation constant (Kd) was no less than 20 µM with HLA-A*69:01 (setting [12]); 0.224 µM with HLA-B*39:01 (setting [12]); no less than 20 µM in the assay with HLA-B*57:01 (setting [12]); no less than 20 µM with HLA-A*03:01 (setting [12]); no less than 20 µM with HLA-B*18:01 (setting [12]); no less than 20 µM in the assay with HLA-B*58:01 [6] (setting [12]). The dissociation constant (Kd) with HLA-A*31:01 (setting [12]), with HLA-A*02:01 [7] (setting [12]), with HLA-B*27:05 (setting [12]), with HLA-A*29:02 (setting [12]) and with HLA-B*46:01 (setting [12]) was no less than 20 µM in each case.
In the assay with HLA-A*11:01 [1] (source organism: Sudan ebolavirus), ENKKNLSEQ yielded an IC50 of no less than 75.4 µM.
Consider FRAFRNLNV, for which the results for the IC50 with HLA-B*08:01 (setting [10]) and with HLA-A*02:01 [3] (setting [10]) were 6.19 µM and no less than 89.1 µM, respectively.
FTFEWNGRI: the Kd is no less than 20 µM with HLA-B*15:01 [8] (source organism: Shigella boydii CDC 3083-94) and 0.0145 µM in the assay with HLA-A*02:01 [9].
Regarding FVTNEVHTW, the results for the Kd in the assay with HLA-B*58:01 [2] (setting [13]) and with HLA-B*53:01 (setting [13]) were 0.0299 µM and 0.0612 µM, respectively.
For FYTRVLKPS, the IC50 was 7.11 µM in the assay with HLA-A*24:02 (setting [14]), no less than 179 µM with HLA-A*11:01 [1] (setting [14]) and no less than 110 µM in the assay with HLA-A*02:01 [3] (setting [14]).
With GPRGRHVVL, the Kd with HLA-B*48:01 (setting [15]), with HLA-A*01:01 (setting [15]), in the assay with HLA-B*51:01, in the assay with HLA-B*40:01 (setting [15]), with HLA-B*15:01 [4] (setting [15]) and in the assay with HLA-A*11:01 [5] (setting [15]) was no less than 20 µM in each case. For the same sequence, the Kd with HLA-A*69:01 (setting [15]), with HLA-B*39:01 (source organism: Mycobacterium tuberculosis str. Haarlem), with HLA-B*57:01 (setting [15]), in the assay with HLA-A*03:01 (setting [15]), with HLA-B*18:01 (setting [15]) and with HLA-B*58:01 [6] (setting [15]) was no less than 20 µM in each case. The Kd with HLA-B*15:17 (setting [15]), with HLA-A*31:01 (setting [15]), with HLA-A*02:01 [7] (setting [15]), with HLA-B*27:05 (setting [15]) and with HLA-B*46:01 (setting [15]) was no less than 20 µM in each case.
Consider GTSGSPIVDK, for which the IC50 with HLA-A*11:01 [1] (setting [16]) turned out to be 0.212 µM.
Turning to ITDITSPLW, the values for the dissociation constant Kd with HLA-B*57:01 (setting [17]), with HLA-B*58:01 [6] (setting [17]) and with HLA-B*15:17 (setting [17]) were 0.0645 µM, 0.003 µM and no more than 0.001 µM, respectively.
For KIRNRIERL, the Kd with HLA-B*48:01 (setting [16]), in the assay with HLA-A*01:01 (setting [16]), with HLA-B*44:02 (setting [16]), with HLA-B*40:01 (setting [16]), with HLA-A*11:01 [5] (setting [16]) and with HLA-A*69:01 (setting [16]) was no less than 20 µM throughout. In addition, the Kd in the assay with HLA-B*57:01 (setting [16]), with HLA-A*03:01 (setting [16]), in the assay with HLA-B*18:01 (setting [16]), with HLA-B*27:05 (setting [16]), with HLA-A*29:02 (setting [16]) and in the assay with HLA-B*46:01 (setting [16]) was no less than 20 µM throughout.
Turning to KSNGAQQWL, the dissociation constant Kd is no less than 20 µM with HLA-B*07:02 (setting [18]); no less than 20 µM with HLA-A*01:01 (setting [18]); no less than 20 µM with HLA-A*26:01; no less than 20 µM with HLA-B*15:01 [4] (setting [18]); 2.16 µM with HLA-B*57:01 (setting [18]); no less than 20 µM with HLA-A*03:01 (setting [18]). Further, the dissociation constant Kd is 0.355 µM with HLA-B*58:01 [6] (setting [18]), 0.006 µM with HLA-B*15:17 (setting [18]), no less than 20 µM in the assay with HLA-A*02:01 [7] (setting [18]) and no less than 20 µM with HLA-B*27:05 (setting [18]).
As for QGIVRQRVI, the IC50 with HLA-A*24:02 (setting [11]) is 11.4 µM; with HLA-B*08:01 (setting [11]), 7.35 µM; with HLA-A*11:01 [1] (setting [11]), no less than 159 µM; with HLA-A*02:01 [3] (setting [11]), no less than 401 µM.
In the case of QMEQWGCPW, the values for the Kd in the assay with HLA-B*57:01 (setting [19]), with HLA-B*58:01 [6] (setting [19]) and in the assay with HLA-B*15:17 (setting [19]) were 5.43 µM, 1.06 µM and 0.147 µM, respectively.
As to SAGESSILR, the IC50 with HLA-A*11:01 [1] (source organism: Vaccinia virus Copenhagen) was 1.41 µM.
Take TAAVLLLVTH: in the assay with HLA-B*58:01 [2] (source organism: Dengue virus 3 Singapore/8120/1995), the dissociation constant (Kd) came to 0.304 µM.
Turning to VLQSAANMY, the Kd in the assay with HLA-B*15:01 [8] (source organism: Bacillus anthracis str. A0488) amounted to 0.0675 µM.
Regarding VNRWLFRHL, the Kd with HLA-B*07:02 (setting [20]), with HLA-B*48:01 (setting [20]), with HLA-A*01:01 (setting [20]), with HLA-B*44:02 (setting [20]), with HLA-B*40:01 (setting [20]) and with HLA-B*15:01 [4] (setting [20]) was no less than 20 µM in each case. Moreover, the dissociation constant Kd in the assay with HLA-A*69:01 (setting [20]), with HLA-B*57:01 (setting [20]), with HLA-A*03:01 (setting [20]), in the assay with HLA-B*18:01 (setting [20]), with HLA-B*58:01 [6] (setting [20]) and in the assay with HLA-A*31:01 (setting [20]) was no less than 20 µM in each case. Moreover, the Kd with HLA-A*02:01 [7] (setting [20]), in the assay with HLA-B*27:05 (setting [20]), with HLA-A*29:02 (setting [20]) and with HLA-B*46:01 (setting [20]) was no less than 20 µM in each case.
For WASVKKDLIS, the Kd with HLA-B*58:01 [2] (setting [13]) turned out to be 0.0813 µM.
Take WVAEIQPQW: the dissociation constant Kd with HLA-B*58:01 [2] (setting [21]) came to 0.0576 µM; in the assay with HLA-B*53:01 (setting [21]), 0.00652 µM.
As for YCPGTTVTL, the dissociation constant Kd with HLA-B*07:02 (setting [16]), with HLA-B*48:01 (setting [16]), in the assay with HLA-A*01:01 (setting [16]), with HLA-B*44:02 (setting [16]), with HLA-B*40:01 (setting [16]) and with HLA-B*15:01 [4] (setting [16]) was no less than 20 µM in each case. For the same sequence, the Kd with HLA-A*11:01 [5] (setting [16]) is no less than 20 µM; in the assay with HLA-A*69:01 (setting [16]) it was no less than 20 µM; with HLA-B*39:01 (setting [16]) it was 1.31 µM; with HLA-B*57:01 (setting [16]) it was no less than 20 µM; with HLA-A*03:01 (setting [16]) it was no less than 20 µM; with HLA-B*18:01 (setting [16]), no less than 20 µM. The Kd with HLA-A*31:01 (setting [16]), with HLA-B*27:05 (setting [16]), with HLA-A*29:02 (setting [16]) and in the assay with HLA-B*46:01 (setting [16]) was no less than 20 µM each time.
